Assay [1] has as its target T1, human CD40 on cells (human, UniProt P25942 21-277). The assay can be described thus: cell-based or functional assay.
The target in assay [2] is T2, human CD40 extracellular domain (recombinant) (human, UniProt P25942 21-193).
T2 construct: Extracellular domain expressed in 293F cells; also called hCD40; CD40-His; not shown: tag (His, Avi-His, mouse Fc or human Fc)
In words: SPR, Biacore 8K; antibody on CM5 chip, hCD40 at various concentrations. As to the method:
The binding affinity of the optimized anti-CD40 antibodies with human […] was characterized using Biacore 8K (GE). Anti-CD4 (antibodies were stabilized on sensor chip CM5 The affinities for hCD40 at various concentrations were measured. Using the SPR technology, the association and dissociation rates were measured, and binding affinity was determined.

Assay [3] deals with T2, human CD40 extracellular domain …. In words: ELISA, plate coated with recombinant human CD40 extracellular domain, antibody (human IgG4 format) in serial dilution, anti-human IgG-HRP, OD450. As to the method: (§1) ELISA Binding Assay: The selected monoclonal full-length antibodies D1, D2, D3, D5, D6, or D7 were subjected to binding assays with CD40 extracellular domain of different species, respectively. The assay was designed to identify full-length antibodies that cross-reacted with CD40 of different species. Briefly, the human or Rhesus monkey CD40 prepared in example 1 was dissolved in PBS and coated on […] with 0.1 μg/well followed by incubation at 4° C. overnight. The 96-well plates were washed with TBST before adding antibodies, blocked with 5% milk for 1-2 h at 37° C., and washed again with TBST. Firstly, each antibody sample was diluted to 10 μg/mL, and then serially diluted at a 1:3 ratio. 100 μL of serially diluted antibodies were added to each well and incubated for 1 h at 37° C. After washing with TBST for 6 times, 100 μL of the secondary antibody (goat anti-human IgG-HRP (Sigma. A8667)) was added to each well and incubated for 1 h at 37° C. After washing with TBST for 3 times, TMB was added with 100 μL/well and incubated for 10-20 minutes at 37° C. 2M H₂SO₄ was used to stop the reaction and plates were read for the absorbance at 450 nm. The ELISA results were then analyzed and the binding curves were generated by PRISM.
(§2) The biding affinity of the optimized full length CD40 antibodies with human or rhesus monkey CD40 was evaluated by Elisa according to the corresponding protocol as described in Example 2, and ASKP1240 was used as control.

Assay [4] concerns the target T3, Rhesus monkey CD40 extracellular domain (recombinant) (Rhesus monkey, UniProt F6SNI1 21-193).
T3 construct: extracellular domain; also called RheCD40
The assay can be described thus: ELISA, plate coated with recombinant rhesus monkey CD40 extracellular domain, antibody (human IgG4 format) in serial dilution, anti-human IgG-HRP, OD450. As to the method:
as §1, §2

For assay [5], the target named is T1, human CD40 on cells. In words: cell-based or functional assay. This is another data set of the same source.

Residue numbers refer to the chain shown, from its start.

T2 sequence (P25942 21-193): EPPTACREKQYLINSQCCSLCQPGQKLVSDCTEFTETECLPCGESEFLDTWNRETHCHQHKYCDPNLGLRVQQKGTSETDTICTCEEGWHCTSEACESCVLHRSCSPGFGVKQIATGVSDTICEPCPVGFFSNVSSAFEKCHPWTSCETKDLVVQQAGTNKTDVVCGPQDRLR
T1 sequence (P25942 21-277 limits assumed): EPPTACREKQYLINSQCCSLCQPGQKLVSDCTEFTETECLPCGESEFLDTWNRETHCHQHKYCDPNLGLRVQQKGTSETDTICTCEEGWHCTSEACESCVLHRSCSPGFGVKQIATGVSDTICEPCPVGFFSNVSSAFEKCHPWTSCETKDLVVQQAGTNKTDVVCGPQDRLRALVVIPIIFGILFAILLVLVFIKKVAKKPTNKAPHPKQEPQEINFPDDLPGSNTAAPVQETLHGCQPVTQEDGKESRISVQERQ

B1: D21 (antibody, human IgG4, V domains shown)
VH: QVQLVQSGAEVKKPGASVKVSCKASVYSFTGYTVNWVRQAPGQRLEWMGLINPRNGGTTYNQKFKGRVTLTIDKSASTAYMELSSLRSEDTAVYYCAWSYYSNPYAMDYWGQGTLVTVSS
VL: EIVMTQSPATLSVSPGERATLSCKASQNVHTRVAWYQQKPGQAPRLLIYLASDRRTGIPARFSGSGSGTEFTLTISSLQSEDFAVYYCLQHWNYPLTFGQGTKVEIK
notes: also called optimized anti-CD40 antibody D21
Take B1: in the assay with human CD40 on cells [1], the “IC50, HEK-Blue CD40L NF-κB activation assay (SEAP), antibody as human IgG4” value (“IC50 … as human IgG4” below) stood at 0.0102 µg/mL. Moreover, in assay [2], the Kd turned out to be 2.54 nM, the koff was 0.000606 s⁻¹ and the on-rate (kon) stood at 238000 M⁻¹ s⁻¹. The “EC50 (read off the curve)” value in assay [3] was about 0.2 µg/mL. Besides, in assay [4], the “EC50 (read off the curve)” value is about 0.1 µg/mL.

B2: D51 (antibody, human IgG4, V domains shown)
VH: B1 VH with R54E, W98S, M107N
VL: B1 VL
Consider B2, for which the “IC50 … as human IgG4” value in the assay with human CD40 on cells [1] turned out to be 0.0184 µg/mL.

B3: D24 (antibody, human IgG4, V domains shown)
VH: B1 VH with R54K, W98S, Y100L
VL: B1 VL
With B3, the “IC50 … as human IgG4” value with human CD40 on cells [1] is 0.0164 µg/mL.

B4: D41 (antibody, human IgG4, V domains shown)
VH: B1 VH with R54Y, N55S, W98S, Y100P
VL: B1 VL with Y94A
Regarding B4, the “IC50 … as human IgG4” value in the assay with human CD40 on cells [1] is 0.0194 µg/mL.

B5: D48 (antibody, human IgG4, V domains shown)
VH: B1 VH with R54S, W98S, M107N
VL: B1 VL with R32H
For B5, in the assay with human CD40 on cells [1], the “IC50 … as human IgG4” value turned out to be 0.0307 µg/mL.

B6: D31 (antibody, human IgG4, V domains shown)
VH: B1 VH with R54Y, T59S, W98S, M107A
VL: B1 VL
Take B6: the “IC50 … as human IgG4” value in the assay with human CD40 on cells [1] turned out to be 0.0139 µg/mL.

B7: D32 (antibody, human IgG4, V domains shown)
VH: B1 VH with R54Y, N55H, W98S, Y100S
VL: B1 VL
B7: in the assay with human CD40 on cells [1], the “IC50 … as human IgG4” value came out at 0.0164 µg/mL.

B8: D28 (antibody, human IgG4, V domains shown)
VH: B1 VH with R54Y, N55S, W98S, N103R
VL: B1 VL with Y94S
Regarding B8, the “IC50 … as human IgG4” value with human CD40 on cells [1] came out at 0.0124 µg/mL.

B9: D30 (antibody, human IgG4, V domains shown)
VH: B1 VH with R54Y, T59W, W98S, Y100M
VL: B1 VL
Regarding B9, in the assay with human CD40 on cells [1], the “IC50 … as human IgG4” value stood at 0.018 µg/mL.

B10: D50 (antibody, human IgG4, V domains shown)
VH: B1 VH with R54Y, T59A, W98S, N103D, M107N
VL: B1 VL
On to B10, for which the “IC50 … as human IgG4” value in the assay with human CD40 on cells [1] is 0.0142 µg/mL.

B11: D34 (antibody, human IgG4, V domains shown)
VH: B1 VH with R54Y, W98S, N103R
VL: B1 VL with N93S
B11: the “IC50 … as human IgG4” value with human CD40 on cells [1] was determined as 0.0338 µg/mL.

B12: D40 (antibody, human IgG4, V domains shown)
VH: B1 VH with R54Y, N55T, W98S, Y101W
VL: B1 VL
As to B12, the “IC50 … as human IgG4” value with human CD40 on cells [1] was determined as 0.0142 µg/mL.

B13: D38 (antibody, human IgG4, V domains shown)
VH: B1 VH with L50M, R54Y, W98S, N103V
VL: B1 VL
As for B13, the “IC50 … as human IgG4” value with human CD40 on cells [1] turned out to be 0.0156 µg/mL.

B14: D22 (antibody, human IgG4, V domains shown)
VH: B1 VH with R54Y, N55T, W98S, N103K
VL: B1 VL with N93T
On to B14, for which, in the assay with human CD40 on cells [1], the “IC50 … as human IgG4” value turned out to be 0.0219 µg/mL.

B15: D39 (antibody, human IgG4, V domains shown)
VH: B1 VH with R54Y, W98S, M107Q
VL: B1 VL
In the case of B15, the “IC50 … as human IgG4” value with human CD40 on cells [1] was determined as 0.03 µg/mL.

B16: D46 (antibody, human IgG4, V domains shown)
VH: B1 VH with R54Y, N55S, W98S, S102V
VL: B1 VL
For the molecule B16, the “IC50 … as human IgG4” value in the assay with human CD40 on cells [1] came to 0.0112 µg/mL.

B17: D43 (antibody, human IgG4, V domains shown)
VH: B1 VH with R54T, T59S, W98S, M107S
VL: B1 VL with L21M
Regarding B17, the “IC50 … as human IgG4” value with human CD40 on cells [1] came out at 0.0168 µg/mL.

B18: D45 (antibody, human IgG4, V domains shown)
VH: B1 VH with R54Y, T59S, W98S, Y100I
VL: B1 VL with Y94Q
As for B18, the “IC50 … as human IgG4” value with human CD40 on cells [1] came to 0.0157 µg/mL.

B19: D25 (antibody, human IgG4, V domains shown)
VH: B1 VH with T33V, R54Y, W98S
VL: B1 VL with R32A
For the molecule B19, the “IC50 … as human IgG4” value with human CD40 on cells [1] was determined as 0.0273 µg/mL.

B20: D37 (antibody, V domains shown)
VH: B1 VH with N52A, R54Y, W98L
VL: B1 VL
B20: in the assay with human CD40 on cells [1], the “IC50 … as human IgG4” value came out at 0.0211 µg/mL.

B21: D23 (antibody, human IgG4, V domains shown)
VH: B1 VH with S28G, R54Y, W98S, M107N
VL: B1 VL with R32A, A51R, H91A
With B21, the “IC50 … as human IgG4” value in the assay with human CD40 on cells [1] worked out at 0.0169 µg/mL.

B22: D27 (antibody, human IgG4, V domains shown)
VH: B1 VH with N52V, R54Y, W98S, Y100G
VL: B1 VL with R32N
Consider B22, for which the “IC50 … as human IgG4” value with human CD40 on cells [1] was found to be 0.0298 µg/mL.

B23: D35 (antibody, human IgG4, V domains shown)
VH: B1 VH with T33L, R54Y, W98S
VL: B1 VL with R32A
As to B23, the “IC50 … as human IgG4” value with human CD40 on cells [1] was found to be 0.0233 µg/mL.

B24: D36 (antibody, human IgG4, V domains shown)
VH: B1 VH with R54Y, W98S, Y100R
VL: B1 VL with R32H
Consider B24, for which, in the assay with human CD40 on cells [1], the “IC50 … as human IgG4” value came out at 0.0212 µg/mL.

B25: D29 (antibody, human IgG4, V domains shown)
VH: B1 VH with R54M, W98S, M107G
VL: B1 VL with Y94R
For B25, the “IC50 … as human IgG4” value with human CD40 on cells [1] was determined as 0.0342 µg/mL.

B26: D44 (antibody, human IgG4, V domains shown)
VH: B1 VH with R54Y, W98S, N103L
VL: B1 VL
B26: the “IC50 … as human IgG4” value in the assay with human CD40 on cells [1] was found to be 0.0201 µg/mL.

B27: D26 (antibody, human IgG4, V domains shown)
VH: B1 VH with R54Y, G57R, W98S, M107N
VL: B1 VL
notes: also called optimized anti-CD40 antibody D26
For B27, in the assay with human CD40 on cells [1], the “IC50 … as human IgG4” value is 0.00908 µg/mL. In assay [2], the Kd was 2.74 nM, the koff came to 0.000596 s⁻¹ and the association rate constant (kon) worked out at 218000 M⁻¹ s⁻¹. In assay [3], the “EC50 (read off the curve)” value was about 0.2 µg/mL. The “EC50 (read off the curve)” value in assay [4] is about 0.1 µg/mL.

B28: D4 (antibody, V domains shown)
VH: EVMLVESGAELVRPGASVKLSCTASGFKIKDSYIHWMIQRPEQGLEWIGRIDPTNGNTNFDPKFRGKATLTTDTSSNTAYLQLSSLTSEDTAVYYCVPNYYGSRYPFSYWGQGTTVTVSS
VL: QIVLTQSPAIMSASPGEKVTMTCSGSSSVSYMHWFQQKPGNSPKIWIYFTSNLASGVPARFSGSGSGTSYSLTISRMEAGDAATYYCQQGSTYPLTFGAGTKLELK
Regarding B28, the “IC50, HEK-Blue CD40L NF-κB activation assay (SEAP), Fc-3*G4S-CD40L stimulus” value with human CD40 on cells [5] was 0.0167 µg/mL.
